Here are results for 1 molecule from US20090175866A1, “TREATMENT OF B-CELL MALIGNANCIES” (priority 2004, published 2009).

One series has as its system FDCP-FGFR3^S249C cells. Briefly: FDCP-FGFR3^S249C xenograft tumor model in nude mice. In kind it is in vivo. The settings on record: PRO-001 Fab I.P. The protocol: FIG. 8B is a graph showing the effect of PRO-001 on an FGFR3-driven xenograft tumor model. Nude mice (3 in each group), were injected S.C. at 2 locations, one on each flank (a—right flank, b—left flank), with 2×10^6 FDCP-FGFR3^S249C cells each. A week later, mice were randomized to receive PRO-001 by I.P. injection according to the schedule described in Table I or PBS as control. Tumor volume was estimated from measurements in 3 dimensions at 22 or 29 days post cell injection.
FDCP-FGFP3^S249C cells were washed 3 times in PBS then resuspended at 2×10^6 cells/200 μl PBS. The cells were injected subcutaneously (S.C.) to CD1 nude adult females (Harlan, Laboratories, Israel) with a 25 G needle at one or both mouse flanks. Treatment was initiated one week post cell inoculation at which time mice were randomized to receive PRO-001 or an equal volume of PBS alone. Dosing was preformed twice weekly by intraperitoneal (I.P.) injection for 3 weeks. Mice were followed every 2-4 days and developing tumors were measured at 3 dimensions using a caliper. Tumor volume was estimated by multiplying these 3 values.
Nude mice were injected subcutaneously at 2 locations; one on each flank, with 2×10^6 FDCP-FGFR3^S249C cells each. One week post cell injection, mice were treated with PRO-001 Fab. […]

The next series has as its target T1, WT FGFR3 (Homo sapiens, UniProt P22607).
T1 construct: expressed in transfected cells; host or cells: B9 cells
Kind of series: Ligand-stimulated receptor phosphorylation in RCJ-FGFR3 cells (immunoprecipitation, Western blot). In kind it is cell-based. The protocol:
FIG. 1C is a photograph of a Western blot showing immune staining of RCJ-FGFR3 cell lysates. RCJ cells were stimulated with FGF (+) with or without pre-incubation with a Fab. Lane 1—no FGF stimulation and no pre-incubation with a Fab. Lane 2—FGF stimulation, no pre-incubation with a Fab. Lane 3—FGF stimulation and pre incubation with a control (C) antibody. Lane 4—FGF stimulation and pre-incubation with an anti-FGFR3 (001) Fab.
Non-transformed rat chondrocyte cell line expressing PGFR3 in an inducible manner (RCJ-FGFR3) has been described previously (Rauchenberger R. et al. J. Biol. Chem. 2003; 278:38194-205). Cells were maintained in α-Minimum Essential Media supplemented with 15% fetal calf serum (FCS), 2 mM L-Glutamine, 100 U/ml penicillin, 100 μg/ml streptomycin, 600 μg/ml G418 (Gibco BRL, Ontario, Canada), 2 μg/ml Tetracyclin (Sigma, Ontario, Canada), and 50 μg/ml HygromycinB (Gibco BRL). […]
Cells were lysed in lysis buffer (50 mM Tris/HCl, pH 8.0, 150 mM […], 0.1 mM ZnCl2, 0.5% Nonidet NP-40, 1 mg/ml, complete protease inhibitor mix (Roche Molecular Biochemicals, Mannheim, Germany)), and clarified by centrifugation at 12,000×g for 15 minutes. The lysates were subjected to immunoprecipitation for 16 hours at 4° C. with anti-FGFR3 (C15) and analyzed by 7.5% sodium dodecyl-polyacrylamide gel electrophoresis (SDS-PAGE) and Western blot with anti-phosphotyrosine (4G10 from R&D). […]

T1 sequence (P22607 23-806): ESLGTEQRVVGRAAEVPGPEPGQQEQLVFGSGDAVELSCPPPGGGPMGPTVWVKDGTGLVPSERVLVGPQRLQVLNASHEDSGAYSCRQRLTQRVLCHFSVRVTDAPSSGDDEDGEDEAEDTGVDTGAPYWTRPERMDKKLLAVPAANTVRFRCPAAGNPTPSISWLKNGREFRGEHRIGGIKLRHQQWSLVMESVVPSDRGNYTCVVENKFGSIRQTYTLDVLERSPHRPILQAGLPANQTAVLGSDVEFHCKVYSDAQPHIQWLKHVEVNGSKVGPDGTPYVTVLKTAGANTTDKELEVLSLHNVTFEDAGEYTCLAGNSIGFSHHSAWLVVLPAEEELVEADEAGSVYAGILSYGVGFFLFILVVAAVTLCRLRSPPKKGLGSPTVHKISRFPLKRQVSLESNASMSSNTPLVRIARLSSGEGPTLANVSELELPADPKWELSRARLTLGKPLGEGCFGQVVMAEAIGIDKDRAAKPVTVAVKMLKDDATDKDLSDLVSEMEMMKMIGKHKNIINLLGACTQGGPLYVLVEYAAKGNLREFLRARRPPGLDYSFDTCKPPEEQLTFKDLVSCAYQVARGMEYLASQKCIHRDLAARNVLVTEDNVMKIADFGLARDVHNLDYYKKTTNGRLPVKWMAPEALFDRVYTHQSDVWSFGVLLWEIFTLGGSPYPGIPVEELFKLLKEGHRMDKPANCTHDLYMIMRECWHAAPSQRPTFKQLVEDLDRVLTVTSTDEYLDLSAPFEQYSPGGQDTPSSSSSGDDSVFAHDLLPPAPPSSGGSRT

B1: PRO-001: human anti-FGFR3 Fab from HuCAL library; VH-CDR3 SEQ ID NO:1, VL-CDR3 SEQ ID NO:10; VH SEQ ID NO:19, VL SEQ ID NO:28 (antibody, V domains shown)
VH: QVQLQQSGPGLVKPSQTLSLTCAISGDSVSSNSAAWNWIRQSPGRGLEWLGRTYYRSKWYNDYAVSVKSRITINPDTSKNQFSLQLNSVTPEDTAVYYCARSYYPDFDYWGQGTLVTVSS
VL: DIELTQPPSVSVAPGQTARISCSGDALGDKYASWYQQKPGQAPVLVIYDDSDRPSGIPERFSGSNSGNTATLTISGTQAEDEADYYCQSYDGPDLWVFGGGTKLTVLGQ
Take B1: in the series with FDCP-FGFR3^S249C cells (four weeks post cell injection, 400-275 μg per dose), the “Tumor growth relative to control mice” value was determined as 10%. Further, in the series on FDCP-FGFR3^S249C cells (nude mice), the “Toxicities and weight loss over the treatment period” value is recorded as “No major toxicities or significant weight loss”. Besides, in the series with WT FGFR3, the “Downstream JNK phosphorylation” value is recorded as “reduction in downstream JNK phosphorylation”. The “Ligand-stimulated autophosphorylation of FGFR3” value with WT FGFR3 (anti-phosphotyrosine immunoblot) is “inhibited”.
